Assay results published in the supplement of paper PMC9732359.
± gives the uncertainty stated by the source.

Experiment: protein stability index of a GFP-peptide fusion (yeast GPS) (PSI 1-4); higher = more stable; sorted into four equal gates, so the index is relative within each strain
How it was run: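 Peptides tiling yeast proteins in 17-residue segments were fused downstream of GFP, with Cherry expressed from the same plasmid. As a pooled library in yeast, mid-log cultures grown in leucine-free medium were sorted into four equal gates by GFP/Cherry fluorescence ratio. Gate plasmids were PCR-amplified and Illumina-sequenced, and barcodes linked reads to strains. Each peptide received a protein stability index equal to the sum of each gate's read frequency times its gate number.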

Sequence	protein stability index (doa10∆)	protein stability index (pdr5∆)	protein stability index (san1∆)	protein stability index (ubr1∆)
ILDGLTVRLVNLFSSTG [SRB2]	3.1 ± 0.15	3.03 ± 0.16		
ILDIVINNPVNLTIHFG [FAS1]	2.06 ± 0.088	2.4 ± 0.078	2.5 ± 0.097	3.02 ± 0.075
ILECDLLICIGTSLKVA [SIR2]	2.05 ± 0.081	1.59 ± 0.061	2.14 ± 0.15	1.73 ± 0.05
ILEDFRVIKDFKKLNSK [YMR153W/NUP53]	3.15 ± 0.11	3.32 ± 0.12	3.58 ± 0.055	3.29 ± 0.063
ILEEKTDLHLPKKEYDD [NSL1]	1.76 ± 0.057	2.39 ± 0.12	2.21 ± 0.12	2.66 ± 0.061
ILGIAGEDFAVLAGDTR [PRE7]	3.65 ± 0.22	3.2 ± 0.23	3.32 ± 0.23	3.64 ± 0.076
ILGKNFDSVIVENLTVA [SMC1]	2.48 ± 0.08	2.15 ± 0.083	2.11 ± 0.075	2.19 ± 0.054
ILKWVQWSRIVLQNVFK [MED1]	2.98 ± 0.087	3.13 ± 0.12	3.29 ± 0.067	3.07 ± 0.068
ILLAGRFRGKRVVYLKH [RPL6A]	1.69 ± 0.078	2.17 ± 0.061	2.04 ± 0.1	2.12 ± 0.056
ILNAKYTKETYQSRGID [RPN6]	2.96 ± 0.062	3.04 ± 0.066	2.97 ± 0.06	2.8 ± 0.056
ILNHIGQLTGIYRYKYK [PRP8]	1.39 ± 0.072	1.47 ± 0.075	1.26 ± 0.11	2.03 ± 0.068
ILPTDGSAEFNVKYRAV [RPB7]	2.57 ± 0.2		3.08 ± 0.13	3.48 ± 0.22
ILSSLYLLSIWVKKFKW [CYT1]	2.22 ± 0.091	1.5 ± 0.069	1.77 ± 0.089	1.3 ± 0.055
ILSSVNRTVLLKIFKIF [SRB8]	1.37 ± 0.083	1.42 ± 0.14	1.17 ± 0.16	1.13 ± 0.093
ILSTTLDPTDDEGHVLK [SIN4]	2.58 ± 0.15	2.64 ± 0.11	3.01 ± 0.14	3 ± 0.12
ILTDLVNYRHFKAMEDV [ITC1]	2.94 ± 0.14	2.98 ± 0.11	3.28 ± 0.068	3.39 ± 0.063
ILTEHLGYPPISLVDDI [MTW1]	2.36 ± 0.054	2.17 ± 0.047	2.22 ± 0.071	2.11 ± 0.042
ILTSKVNAIKNEVKEWA [DSN1]	2.64 ± 0.09	2.66 ± 0.094	3.07 ± 0.072	2.82 ± 0.08
ILYEIRALYTPFLLMEL [YDL116W/NUP84]	2.66 ± 0.081	2.93 ± 0.064	2.79 ± 0.066	3.02 ± 0.062
ILYYDVLFITPDIVGHE [BRR2]	2.29 ± 0.058	2.49 ± 0.052	2.61 ± 0.053	2.84 ± 0.057
IMERIKSSLSLRDHALS [ITC1]	2.24 ± 0.12	2.53 ± 0.053	2.7 ± 0.18	2.65 ± 0.06
IMKFQSLSDNDLAVCAT [ECM29]	2.03 ± 0.076	2.46 ± 0.067	2.69 ± 0.062	2.77 ± 0.064
IMVLDASIGQAAEQQSK [SRP54]		2.78 ± 0.29	3.18 ± 0.1	2.97 ± 0.13
INDAGKAKKLIQSLPPT [RPL38]	2.17 ± 0.047	2.38 ± 0.042	1.96 ± 0.059	2.56 ± 0.03
INDFKKIGRENENENED [POP5]		3.38 ± 0.22	2.76 ± 0.19	2.49 ± 0.27
INDIRDDDIEKQEQEEK [YCG1]	2.96 ± 0.082	2.79 ± 0.07	2.94 ± 0.055	3.12 ± 0.055

Sequence	protein stability index (doa10∆)	protein stability index (pdr5∆)	protein stability index (san1∆)	protein stability index (ubr1∆)
INLAMNESSLALEFVSL [SRB4]	1.44 ± 0.088	1.41 ± 0.074	1.81 ± 0.12	1.92 ± 0.064
INNLPPEKEASSATIVL [YCG1]	2.55 ± 0.16	2.88 ± 0.14	2.29 ± 0.19	2.52 ± 0.073
INQKALRKIQALRDVKN [GAL11]		1.26 ± 0.25		
INSDNQNIILRSTMMKF [RPN3]	2.82 ± 0.092	2.81 ± 0.086	2.77 ± 0.11	2.9 ± 0.059
INVETVYDIMALEDEER [BRR2]	2.99 ± 0.092	2.8 ± 0.081	2.73 ± 0.066	2.79 ± 0.067
INVLTDQNPIQVVVDAI [RPS5]	2.19 ± 0.044	2.59 ± 0.038	2.44 ± 0.055	2.05 ± 0.031
IPFPDHNQSPRNTYQSA [RPB2]	2.97 ± 0.083	3.06 ± 0.067	3.22 ± 0.056	2.78 ± 0.063
IPFQTLYRSIESGEFDF [YJL039C/NUP192]	1.95 ± 0.061	2.27 ± 0.062	2.11 ± 0.1	1.99 ± 0.032
IPHFIDNNSSLNVSNTK [PRP8]	2.36 ± 0.08	2.42 ± 0.069	2.66 ± 0.053	2.51 ± 0.06
IPIAIVLKACGILSDLE [RET1]	1.4 ± 0.057	1.43 ± 0.061	1.36 ± 0.096	2.02 ± 0.053
IPLDNYDDFIYLSDLKQ [PCI8]	2.11 ± 0.12	2.04 ± 0.14	1.77 ± 0.25	2.62 ± 0.12
IPPDQQRLIFAGKQLED [RPS31]	2.92 ± 0.077	2.73 ± 0.06	3.18 ± 0.038	3.16 ± 0.035
IQKESTLHLVLRLRGGI [RPL40A]	2.48 ± 0.11	2.6 ± 0.071	2.35 ± 0.1	2.54 ± 0.058
IQMNNSLQNNLQNNINN [SNF11]	3.35 ± 0.093	3.32 ± 0.088	3.06 ± 0.087	3.31 ± 0.064
IQRFFALHYLVPFIIAA [COB]	1.39 ± 0.052	1.17 ± 0.063	1.11 ± 0.15	1.09 ± 0.036
IQRTLMELLTQMDGFDN [RPT4]	2.84 ± 0.12	3.22 ± 0.079	3.28 ± 0.15	3.23 ± 0.1
IQTVVISLLALPHSPLW [YML031W/NDC1]	1.36 ± 0.076	1.58 ± 0.063	1.36 ± 0.1	2 ± 0.049
IQVFEKPFLKKTQEYYT [CDC53]	2.36 ± 0.073	2.33 ± 0.056	2.57 ± 0.078	2.57 ± 0.053
IRDLEKLYDKTENDIKA [RPT4]	2.66 ± 0.18	2.6 ± 0.21	1.91 ± 0.22	2.43 ± 0.22
IRNIVEAAAVRDLSEAS [RPS26A]	2.07 ± 0.066	2.39 ± 0.082	2.39 ± 0.079	2.49 ± 0.077
IRQDVNLGRAVFWEIQS [PRP8]	3.04 ± 0.069	2.86 ± 0.053	2.64 ± 0.06	2.86 ± 0.04
ISFAIYSALNSTYLPKL [RRP42]	2.1 ± 0.054	2.3 ± 0.048	2.05 ± 0.058	2.34 ± 0.039
ISFLEPINLKFLQGESP [YMR129W/POM152]	2.6 ± 0.073	2.94 ± 0.11		2.67 ± 0.15
ISGNPPLLYNSLCTVWK [SRB5]	2.56 ± 0.051	2.41 ± 0.045	2.34 ± 0.048	2.38 ± 0.055
ISKRKEELEEEFRKKLK [YIL149C/MLP2]	3.49 ± 0.11	3.35 ± 0.1	3.06 ± 0.089	3.67 ± 0.11
ISLLCKNFKGIEEIEYN [PCI8]	2.94 ± 0.082	3.31 ± 0.075	3.11 ± 0.04	3.01 ± 0.061

Sequence	protein stability index (doa10∆)	protein stability index (pdr5∆)	protein stability index (san1∆)	protein stability index (ubr1∆)
ISLVDDIINAVNEIMYK [MTW1]	2.9 ± 0.073	2.91 ± 0.081	2.83 ± 0.053	3.1 ± 0.095
ISRERDLFTHLWNQWLK [SRP68]	3.04 ± 0.12	3.06 ± 0.12	2.99 ± 0.055	2.93 ± 0.11
ISRNGDTSYKIDGKTVS [SMC1]	2.72 ± 0.14	3.01 ± 0.074	2.9 ± 0.064	3.29 ± 0.081
ISSSAIPYSRNAPAWFK [RPS13]	2.33 ± 0.09	2.9 ± 0.071	2.21 ± 0.086	2.37 ± 0.063
ISTLFQRDRHTLAYDRG [PRP8]	2.58 ± 0.14	3.21 ± 0.13	2.68 ± 0.082	2.79 ± 0.058
ISWCSLSETNGLHKFVK [PRE10]	2.38 ± 0.089	2.73 ± 0.12	2.82 ± 0.11	2.44 ± 0.11
ITGEDEVLCSRIIEKSV [RRP45]	2 ± 0.051	2.45 ± 0.054	2.1 ± 0.098	1.89 ± 0.059
ITHNTNITDNLFQELSK [GRR1]	3.27 ± 0.091	3.55 ± 0.13	3.62 ± 0.22	3.18 ± 0.16
ITLLPSSLKESSPDTMK [SNF12]	2.96 ± 0.19			2.27 ± 0.25
ITQMRVNDEEEHKQLVA [RPC82]	3.29 ± 0.13	2.92 ± 0.099	2.82 ± 0.13	3.34 ± 0.16
ITRLCQTLGLESFTEEL [MED1]	2.54 ± 0.054	2.81 ± 0.063	1.59 ± 0.16	2.51 ± 0.056
ITRSVMRFNIEIIADWI [BRR2]	3.04 ± 0.071	2.7 ± 0.078	2.57 ± 0.097	3.16 ± 0.065
IVAKYDPPIIIFINYKQ [PRP28]	2.47 ± 0.075	1.77 ± 0.068	1.98 ± 0.12	1.96 ± 0.048
IVAQSEVEVSTRDLFDL [RPO31]	3.07 ± 0.074	3.34 ± 0.083	3.3 ± 0.059	3.2 ± 0.067
IVDDYWESLAKKQNLSS [SWP82]	2.91 ± 0.073	2.93 ± 0.089	3.45 ± 0.1	2.96 ± 0.059
IVEQDKSMELFYDIRSL [YJL039C/NUP192]	2.34 ± 0.13	2.93 ± 0.11	2.66 ± 0.086	3.16 ± 0.082
IVHHPYQSLKQIVQVLK [SSN8]	1.24 ± 0.061	1.58 ± 0.099	1.18 ± 0.14	1.25 ± 0.072
IVKASNWRLVEVGRVVL [RPL14A]	2.8 ± 0.1	1.43 ± 0.13		1.69 ± 0.089
IVKVFHGAFMDIIWLQR [RRP6]	2.1 ± 0.056	1.53 ± 0.047	1.32 ± 0.073	1.18 ± 0.033
IVNVNFMKSVIRSREAF [DIS3]	2.75 ± 0.065	2.77 ± 0.062	2.2 ± 0.098	2.31 ± 0.04
IVQIDATPFRQWFEAHY [RPS8A]	2.425 ± 0.022	2.797 ± 0.025	2.626 ± 0.023	2.697 ± 0.019
IVTGNLVLDLLTWLSSF [IRR1]	2.63 ± 0.061	2.66 ± 0.041	2.05 ± 0.07	2.29 ± 0.039
IVTKDGVRKEFYELKRD [PRE7]	2.35 ± 0.093	2.16 ± 0.066	3.04 ± 0.082	3.16 ± 0.07
IVVQLNGRLNKCGVISP [RPS22A]	3.25 ± 0.19	3.35 ± 0.14	2.98 ± 0.093	3.49 ± 0.079
